Assay results from article PMC2040504.

Target: CXCR4 (human (endogenous in CEM)) (UniProt P61073)
Test: radioligand binding; competition: 0.25 nM 125I-CXCL12α and a range of concentrations of unlabelled CXCL12 (α, γ or γ-m1) on CEM cells (10^7 cells/ml), 100 µl PBS, 1 h, 4°C; cell-associated radioactivity counted

UniProt P61073, sequence (P61073 whole entry): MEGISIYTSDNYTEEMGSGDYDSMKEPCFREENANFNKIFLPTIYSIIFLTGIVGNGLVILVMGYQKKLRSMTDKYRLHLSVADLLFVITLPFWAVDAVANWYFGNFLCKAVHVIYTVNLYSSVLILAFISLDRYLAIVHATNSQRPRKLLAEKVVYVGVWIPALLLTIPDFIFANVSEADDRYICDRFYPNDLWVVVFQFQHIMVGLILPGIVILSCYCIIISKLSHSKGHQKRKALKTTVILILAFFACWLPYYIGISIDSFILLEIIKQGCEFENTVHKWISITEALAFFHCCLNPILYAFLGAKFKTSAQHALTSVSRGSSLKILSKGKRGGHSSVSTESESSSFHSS

IC50: 350 nM
Substance: CXCL12γ (ligand)
